Experimental findings from article PMC8155523, “Non-covalent Interaction With SUMO Enhances the Activity of Human Cytomegalovirus Protein IE1” (Frontiers in Cell and Developmental Biology, 2021) are described below.

This test concerns the target T1, SUMO1 (UniProt P63165 1-97).
T1 construct: SUMO1, expressed from SUMO1-pQE80L; Uniformly 15N-labelled for NMR; Plasmid obtained from Rama Koti, TIFR, Mumbai; also called 15N-SUMO1; 15N-wt-SUMO1; source: E. coli BL21 (DE3), 15NH4Cl-M9 medium, purified (Ni-NTA, Superdex 75)
In words: NMR titration; IE1-SIM peptides titrated into ~0.3 mM 15N-SUMO1 or 15N-SUMO2 up to 1:4 (SUMO:SIM); 15N-HSQC, 298K, 800 MHz; PBS, 5 mM DTT, 10% D2O; CSPs fit to a 1:1 model. Conditions: both partners purified.

T1 sequence (P63165 1-97): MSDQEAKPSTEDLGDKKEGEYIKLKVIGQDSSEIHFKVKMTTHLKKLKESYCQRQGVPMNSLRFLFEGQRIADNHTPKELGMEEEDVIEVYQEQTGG

B1: IE1-SIM2 peptide (peptide)
peptide: PATIPLSSVIVAENSDQEE
notes: Human Cytomegalovirus Immediate-Early protein 1 (IE1), peptide around SIM2 (VIVA, aa 416-419); source: synthetic peptide (Lifetein)
As to B1, binding was put at a Kd of 136 ± 32 µM.

B2: IE1-SIM1 peptide (peptide)
peptide: RPLITKPEVISVMKRRIEE
notes: Human Cytomegalovirus Immediate-Early protein 1 (IE1), peptide around SIM1 (VISV, aa 335-338); source: synthetic peptide (Lifetein)
The molecule B2 had a Kd of 134 ± 23.2 µM.

As usually defined, the Kd is the concentration at which binding is half-saturated.
